The experiment addresses T1, GST-Abp1 SH3 domain (S. cerevisiae, UniProt P15891 532-592).
T1 construct: SH3 domain of Abp1, S. cerevisiae
T1 sequence (looked up): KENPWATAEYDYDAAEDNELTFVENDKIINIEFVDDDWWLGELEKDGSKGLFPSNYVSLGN
Description: SPR; BIAcoreX; GST-fused SH3 domains (and GST as control) amine-coupled to CM5 chips; peptides flowed at 25°C in 10 mM HEPES, 150 mM NaCl, 3.4 mM EDTA, 0.005% P20, pH 7.4, 15 μl/min, 500 μM to 65 nM; steady-state model. As to conditions: both partners purified. (In general: Surface plasmon resonance follows binding to a sensor surface in real time, without labels.)

Where only a bound is given, the exact number is not on record here.

B1: Ynl094w peptide RRPPPPPIPSTQKP (peptide)
peptide: RRPPPPPIPSTQKP
notes: stretch of Ynl094w, S. cerevisiae; also called tetradecapeptide in the Ynl094w protein
B1 displayed a Kd of at least 100 µM.

The term Kd denotes the free concentration of one partner at which half of the binding sites on the other are occupied at equilibrium, for simple one-to-one binding.

(Values after PMC314469, “Protein Interaction Networks by Proteome Peptide Scanning” (PLoS Biology, 2004).)
